The test deals with pyruvate kinase isozyme M2 (mouse (endogenous in splenic CD4+ T cells polarized into Th17 cells)) (UniProt P52480). The experiment in a line: cross-linking; Th17 cells treated with or without HCA for 24 h; cells washed with ice-cold PBS pH 8.0, disuccinimidyl suberate at 1 uM for 30 min at room temperature, quenched with 10 mM Tris, lysed, Western blot for monomeric and tetrameric PKM2. (Immunoblotting shows a protein as a band on a membrane.)

pyruvate kinase isozyme M2, P52480 1-531 (enzyme; other documents disagree on this pair), sequence (P52480 whole entry): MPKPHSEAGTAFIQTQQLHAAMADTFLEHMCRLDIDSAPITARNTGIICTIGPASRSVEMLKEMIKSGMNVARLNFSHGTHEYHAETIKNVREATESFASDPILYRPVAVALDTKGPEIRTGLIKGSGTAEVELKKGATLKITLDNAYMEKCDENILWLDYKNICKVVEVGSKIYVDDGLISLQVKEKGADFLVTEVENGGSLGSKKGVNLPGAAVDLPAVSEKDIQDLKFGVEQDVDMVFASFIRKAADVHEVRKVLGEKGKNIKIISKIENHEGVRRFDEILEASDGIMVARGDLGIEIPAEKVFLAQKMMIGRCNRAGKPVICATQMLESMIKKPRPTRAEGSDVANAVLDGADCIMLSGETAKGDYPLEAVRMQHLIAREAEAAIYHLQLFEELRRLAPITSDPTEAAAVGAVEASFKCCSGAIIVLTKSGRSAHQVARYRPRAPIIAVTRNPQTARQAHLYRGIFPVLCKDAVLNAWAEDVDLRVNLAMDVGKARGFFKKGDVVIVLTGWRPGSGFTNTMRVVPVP

On to “pyruvate kinase isozyme M2, P52480 1-531 (enzyme; other documents disagree on this pair)”, for which the stoichiometry N (usually the number of molecules, sites or subunits per partner or assembly) is 4.

Source of the values: publication PMC8178393.
